Measurements reported in US20240262905A1 (PANDION OPERATIONS, published 2024).

Key:
[1] = target: PD-1 on PD-1 reporter Jurkat cells (human, UniProt Q15116 25-288); experiment: cell-based or functional assay
human DSG-3 [2] = target: T1, human DSG-3 (human, UniProt P32926 50-615, limits assumed); experiment: BLI (Octet), test article captured on anti-human Fc biosensors, human DSG-3 as analyte, 1:1 global fit
T1 construct: Soluble analyte (Octet) and plate coat (ELISA); also called hDSG-3
T1 sequence (looked up): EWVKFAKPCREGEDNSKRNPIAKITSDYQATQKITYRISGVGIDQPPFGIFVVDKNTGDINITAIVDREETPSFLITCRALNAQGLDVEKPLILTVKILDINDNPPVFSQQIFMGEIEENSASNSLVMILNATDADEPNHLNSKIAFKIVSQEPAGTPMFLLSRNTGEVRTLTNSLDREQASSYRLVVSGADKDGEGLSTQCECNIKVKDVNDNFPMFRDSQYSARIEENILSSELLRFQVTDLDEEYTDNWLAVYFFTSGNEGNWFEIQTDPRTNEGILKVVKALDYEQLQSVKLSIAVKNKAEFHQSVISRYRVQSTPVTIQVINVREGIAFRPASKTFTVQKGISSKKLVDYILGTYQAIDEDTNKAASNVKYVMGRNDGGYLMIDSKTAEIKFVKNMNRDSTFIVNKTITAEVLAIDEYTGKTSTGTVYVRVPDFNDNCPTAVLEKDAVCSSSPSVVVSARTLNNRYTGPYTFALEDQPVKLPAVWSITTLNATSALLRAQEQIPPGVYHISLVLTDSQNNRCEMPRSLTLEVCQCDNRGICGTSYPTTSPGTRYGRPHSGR
Procedure: (§1) Anti-human Fc biosensors were equilibrated in assay buffer (PBS, pH 7.4 with 1% BSA, and 0.05% Tween-20) for 30 minutes before the experiment was set-up. Test articles were diluted to 5 ug/mL in assay buffer. A two-fold, seven-point dilution of human DSG-3 (starting at 300 nM as the highest concentration) was made. Test articles were captured using anti-human Fc biosensors for 180 s. Biosensors loaded with test articles were equilibrated in assay buffer for 120 s; association was performed for 180 seconds and dissociation was performed for 300 s. Kinetic parameters (kon and kdis) and dissociation constant (KD) were calculated from a 1:1 global fit model using the data analysis software of the Octet96 RED software version 10.

mouse PD-1 = target: T2, mouse PD-1 (mouse, UniProt Q02242 25-167, limits assumed); experiment: no binding assay described; said in the vitiligo mouse model example
T2 sequence (looked up): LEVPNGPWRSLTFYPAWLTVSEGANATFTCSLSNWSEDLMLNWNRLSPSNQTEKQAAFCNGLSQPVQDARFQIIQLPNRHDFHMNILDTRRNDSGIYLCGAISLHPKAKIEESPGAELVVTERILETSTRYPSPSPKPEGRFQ

desmoglein-1 = target: T3, desmoglein-1 (Homo sapiens (Human), UniProt Q02413 50-548); experiment: BLI (Octet), test article captured on anti-human Fc biosensors, desmoglein as analyte, 1:1 global fit
T3 construct: also called DSG-1
T3 sequence: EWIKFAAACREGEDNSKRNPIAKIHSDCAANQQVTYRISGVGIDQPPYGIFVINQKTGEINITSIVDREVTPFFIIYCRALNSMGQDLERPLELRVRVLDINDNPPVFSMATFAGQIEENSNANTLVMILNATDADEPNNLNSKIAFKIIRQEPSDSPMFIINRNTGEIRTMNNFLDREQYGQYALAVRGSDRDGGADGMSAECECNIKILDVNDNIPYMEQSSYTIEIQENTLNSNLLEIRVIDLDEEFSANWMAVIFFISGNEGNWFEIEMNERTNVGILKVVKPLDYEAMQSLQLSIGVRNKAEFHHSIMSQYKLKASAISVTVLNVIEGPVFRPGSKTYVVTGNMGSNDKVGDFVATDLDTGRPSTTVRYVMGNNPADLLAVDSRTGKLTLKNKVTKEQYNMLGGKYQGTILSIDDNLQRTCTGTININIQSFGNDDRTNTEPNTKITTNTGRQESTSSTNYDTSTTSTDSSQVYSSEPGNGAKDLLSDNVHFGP
Procedure: as §1

desmoglein-4 = target: T4, desmoglein-4 (Homo sapiens (Human), UniProt Q86SJ6 50-631); experiment: as above
T4 construct: also called DSG-4
T4 sequence: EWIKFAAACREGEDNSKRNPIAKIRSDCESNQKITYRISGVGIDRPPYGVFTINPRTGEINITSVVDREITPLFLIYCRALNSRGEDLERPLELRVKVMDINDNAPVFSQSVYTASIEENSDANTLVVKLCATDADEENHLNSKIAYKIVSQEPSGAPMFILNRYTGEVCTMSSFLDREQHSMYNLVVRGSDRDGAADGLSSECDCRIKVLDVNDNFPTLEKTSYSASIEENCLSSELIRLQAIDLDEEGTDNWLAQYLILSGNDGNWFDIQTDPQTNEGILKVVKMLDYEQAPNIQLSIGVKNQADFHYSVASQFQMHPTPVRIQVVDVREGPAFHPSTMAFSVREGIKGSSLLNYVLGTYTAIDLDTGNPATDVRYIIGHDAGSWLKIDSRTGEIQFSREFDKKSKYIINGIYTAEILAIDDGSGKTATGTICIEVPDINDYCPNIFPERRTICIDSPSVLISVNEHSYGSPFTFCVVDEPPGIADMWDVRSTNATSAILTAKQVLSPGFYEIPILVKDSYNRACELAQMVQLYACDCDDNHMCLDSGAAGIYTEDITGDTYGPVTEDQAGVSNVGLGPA
Procedure: as §1

desmoglein-2 = target: T5, desmoglein-2 (Homo sapiens (Human), UniProt Q14126 50-609); experiment: as above
T5 construct: also called DSG-2
T5 sequence: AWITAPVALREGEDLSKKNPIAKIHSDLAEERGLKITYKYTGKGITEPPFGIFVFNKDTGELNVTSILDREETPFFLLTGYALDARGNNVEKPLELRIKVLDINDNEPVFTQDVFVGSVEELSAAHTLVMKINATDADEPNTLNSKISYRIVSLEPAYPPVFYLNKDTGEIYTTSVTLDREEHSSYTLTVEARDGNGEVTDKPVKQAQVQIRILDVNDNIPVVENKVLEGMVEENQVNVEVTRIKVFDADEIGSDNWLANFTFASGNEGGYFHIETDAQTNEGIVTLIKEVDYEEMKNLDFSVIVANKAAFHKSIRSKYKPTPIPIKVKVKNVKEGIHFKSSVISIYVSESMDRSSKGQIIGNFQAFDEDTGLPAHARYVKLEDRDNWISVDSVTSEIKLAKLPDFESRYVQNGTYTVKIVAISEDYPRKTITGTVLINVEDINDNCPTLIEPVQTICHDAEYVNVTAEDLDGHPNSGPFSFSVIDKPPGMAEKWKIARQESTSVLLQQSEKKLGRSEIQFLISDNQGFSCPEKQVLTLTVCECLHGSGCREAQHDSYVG
Procedure: as §1

human DSG-3 [3] = target: T1, human DSG-3; experiment: as above
Procedure: as §1

human DSG-3 [4] = target: T1, human DSG-3; experiment: bridging ELISA, plate coated with hDSG-3, test article at 10 nM, then his-tagged hCD25 1 ug/mL, anti-His-HRP detection
Procedure: (§2) An immunosorbent plate was coated with dsDNA at a concentration of 1 μg/mL hDSG-3 in PBS pH 7.4 and incubated overnight at 4° C. Wells were washed with PBS pH 7.4 containing 0.05% Tween-20 (wash buffer) three times, and then blocked with 6% milk in PBS pH 7.4 (block buffer) for two hours at room temperature. After three washes with wash buffer, 1 nM, 10 nM, and 100 nM of the test articles in assay buffer (PBS, pH 7.4 containing 1% BSA and 0.05% Tween-20) was added and incubated for 1 hr. After three washes with wash buffer 1 μg/mL of his-tagged hCD25 was added and incubated for 1 hr. Detected with anti anti-His-HRP conjugated antibody (1:10,000 dilution).

human DSG-3 [5] = target: T1, human DSG-3; experiment: bridging ELISA, plate coated with hDSG-3, test article at 100 nM, then his-tagged hCD25 1 ug/mL, anti-His-HRP detection
Procedure: as §2

Insulin = target: T6, Insulin; experiment: ELISA, plate coated with insulin 5 ug/mL, test article at 100 nM, anti-human Fc-HRP detection
T6 construct: Plate coat in the polyreactivity ELISA
Procedure: Non-specific DNA and Insulin binding (a measure of polyreactivity), which may be predictive of poor PK, was measured. An immunosorbent plate was coated with dsDNA at a concentration of 1 μg/mL or Insulin at 5 μg/mL in PBS pH 7.4 and incubated overnight at 4° C. Wells were washed with PBS pH 7.4 containing 0.05% Tween-20 (wash buffer) three times, and then blocked with 1% BSA in PBS pH 7.4 (block buffer) for two hours at room temperature. […] The diluted material was added to the DNA/insulin coated plate for 1 hour at room temperature. After three washes with wash buffer, a donkey anti-human FcY HRP conjugated polyclonal antibody, diluted to 1:5000 in assay buffer, was added to the plate for 1 hr at room temperature. After three washes with wash buffer and three washes with wash buffer (with no tween-20), the assay was developed with TMB, and stopped with 1N HCL. OD 450 nm was measured.

human DSG-3 [6] = target: T1, human DSG-3; experiment: bridging ELISA, plate coated with hDSG-3, test article at 1 nM, then his-tagged hCD25 1 ug/mL, anti-His-HRP detection
Procedure: as §2

PD-1 on PD-1 reporter Jurkat cells, sequence (Q15116 25-288): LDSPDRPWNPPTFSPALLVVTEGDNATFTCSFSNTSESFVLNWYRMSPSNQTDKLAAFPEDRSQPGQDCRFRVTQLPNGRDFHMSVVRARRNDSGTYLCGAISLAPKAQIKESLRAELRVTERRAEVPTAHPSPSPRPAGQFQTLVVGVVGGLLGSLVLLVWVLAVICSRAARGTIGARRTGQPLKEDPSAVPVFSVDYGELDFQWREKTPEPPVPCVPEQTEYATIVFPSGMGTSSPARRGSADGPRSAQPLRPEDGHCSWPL

Binder	SHP-2 recruitment in PD-1 reporter Jurkat cells (test article on anti-human IgG coated plate), EC50 at 2 hours [1] [µM]	SHP-2 recruitment in PD-1 reporter Jurkat cells (test article on anti-human IgG coated plate), EC50 at 24 hours [1] [µM]	Kd (human DSG-3 [2]) [µM]	koff (human DSG-3 [2]) [s⁻¹]	binding result (mouse PD-1)	Kd (desmoglein-1) [µM]	Kd (desmoglein-4) [µM]	Kd (desmoglein-2) [µM]	Kd (human DSG-3 [3]) [µM]	absorbance (OD450 nm) (human DSG-3 [4])	absorbance (OD450 nm) (human DSG-3 [5])	Insulin polyreactivity score (Insulin)	absorbance (OD450 nm) (human DSG-3 [6])
PD1DSGAB9 (bispecific antibody, also called PD1DS91; copies: 2 + 2) heavy: EVQLLESGGGLVQPGGSLRLSCAASGFTFSNSDMSWVRQAPGKGLEWVSGITISGGSTYYADSVKGRFTISRDNSKNTLYLQMNSLRAEDTAVYYCARGRGGSGWLDYWGQGTLVTVSSASTKGPSVFPLAPSSKSTSGGTAALGCLVKDYFPEPVTVSWNSGALTSGVHTFPAVLQSSGLYSLSSVVTVPSSSLGTQTYICNVNHKPSNTKVDKKVEPKSCDKTHTCPPCPAPEAAGAPSVFLFPPKPKDTLMISRTPEVTCVVVDVSHEDPEVKFNWYVDGVEVHNAKTKPREEQYNSTYRVVSVLTVLHQDWLNGKEYKCKVSNKALPAPIEKTISKAKGQPREPQVYTLPPSREEMTKNQVSLTCLVKGFYPSDIAVEWESNGQPENNYKTTPPVLDSDGSFFLYSKLTVDKSRWQQGNVFSCSVMHEALHNHYTQKSLSLSPGGGGGSGGGGSGGGGSQSVLTQPPSVSGTPGQRVTISCSGSSSHIGSNYVYWYQQLPGTAPKILIYSNDQRPAGVPDRFSASKSGTSASLAISGLRSEDEADYYCAAWDDGQGGVFGGGTKLTVLGGGGSGGGGSGGGGSGGGGSQVQLQESGPGPVKPSGTLSLTCGVSGGSISSNHWWTWVRQPPGKGLEWIGEIYHNGSTFLNPSLKSRVTISVDKSNNQFSLKLTSVTAADTAVYYCARGWHRTGFRGYPSHWYFDLWGRGTLVSVSS light: not shown	0.0212	0.0166	0.029	0.000757	no binding								
IL2DSGAB1 (other, SD1 anti-desmoglein human IgG1 with the IL-2 mutein fused to the C-terminus of the heavy chain; copies: 2 + 2) heavy: QVQLQESGPGPVKPSGTLSLTCGVSGGSISSNHWWTWVRQPPGKGLEWIGEIYHNGSTFLNPSLKSRVTISVDKSNNQFSLKLTSVTAADTAVYYCARGWHRTGFRGYPSHWYFDLWGRGTLVSVSSASTKGPSVFPLAPSSKSTSGGTAALGCLVKDYFPEPVTVSWNSGALTSGVHTFPAVLQSSGLYSLSSVVTVPSSSLGTQTYICNVNHKPSNTKVDKKVEPKSCDKTHTCPPCPAPEAAGAPSVFLFPPKPKDTLMISRTPEVTCVVVDVSHEDPEVKFNWYVDGVEVHNAKTKPREEQYNSTYRVVSVLTVLHQDWLNGKEYKCKVSNKALPAPIEKTISKAKGQPREPQVYTLPPSREEMTKNQVSLTCLVKGFYPSDIAVEWESNGQPENNYKTTPPVLDSDGSFFLYSKLTVDKSRWQQGNVFSCSVMHEALHNHYTQKSLSLSPGGGGGSAPTSSSTKKTQLQLEHLLLDLQMILNGINNYKNPKLTRMLTFKFYMPKKATELKHLQCLEEELKPLEEALNLAPSKNFHLRPRDLISDINVIVLELKGSETTFMCEYADETATIVEFINRWITFSQSIISTLT light: not shown						0.013	0.01	0.0042	0.019	0.78	1.3	2.2	0.31
